According to patent US6767991 (Boehringer Ingelheim, dated 2004):
*1 amine or outer side, *2 acyl side, *3 side chain or, on linkers, in order; H or OH if unused. Primed or numbered codes have the meaning given here. Where no end group is shown, it is not given here. [ ]: non-standard residue; d: D form. Pro((4-tert-butyl-phenyl)-methoxy) = Pro(4-R13), R13 = (4-tert-butyl-phenyl)-methoxy; Hyp(4-Bn) = 4(R)-benzyloxyproline, O=C([C@@H]1C[C@@H](OCc2ccccc2)CN1[*:1])[*:2]; Pro(1-NpCH2O)″ = Pro(4-R13), R13 = naphthalen-1-ylmethoxy; Pro(2-NpCH2O)″ = Pro(4-R13), R13 = naphthalen-2-ylmethoxy; Glutaryl = O=C(CCCC(=O)[*:2])[*:1]; Pro(4-OBn) = Pro(4-R13), R13 = OBn; Pro(O-Bn) = Pro(4-R13), R13 = O-Bn; NMeI = CC[C@H](C)[C@H](NC)C(=O)O; Pro(Bn) = Pro(4-R13), R13 = Bn; AllylGly = C=CC[C@H](N)C(=O)O; Chg = N[C@H](C(=O)O)C1CCCCC1; Suc = O=C(CCC(=O)[*:2])[*:1]; Tle = CC(C)(C)[C@H](N)C(=O)O; code B = not defined here; Ac5c = NC1(C(=O)O)CCCC1; Acca = not defined here; Nva = CCC[C@H](N)C(=O)O; Abu = CC[C@H](N)C(=O)O; Acc = not defined here; Ac3c = NC1(C(=O)O)CC1

B1: Compound 304 (Table 3): Ac-Chg-Val-W-Acc, W drawn (peptide)
peptide: Ac-[Chg]VX[Acc]
modifications: not fully specified (residue 3); printed as Ac-Chg-Val-W-Acc; also: further groups not given here
B2: Compound 223 (Table 2): B-Ile-Val-Pro(1-NpCH2O)-Nva, B drawn (peptide)
peptide: {code B}-IV[Pro(4-(1-NpCH2O))][Nva]
modifications: reading uncertain; also: further groups not given here, printed as B-Ile-Val-Pro(1-NpCH2O)-Nva
B3: Compound 224 (Table 2): B-Ile-Val-Pro(1-NpCH2O)-Nva, B drawn (peptide)
peptide: {code B}-IV[Pro(4-(1-NpCH2O))][Nva]
modifications: reading uncertain; also: further groups not given here, printed as B-Ile-Val-Pro(1-NpCH2O)-Nva

Target: T1, recombinant NS3 protease with the NS4A peptide cofactor … (molar ratio enzyme:cofactor 1:100) (hepatitis C virus genotype 1b)
Test: cell-based or functional assay

Q: B1 was tested. Which IC50 did it give?
A: The IC50 was 1.1 µM.

Target: T1, recombinant NS3 protease with the NS4A …
Test: cell-based or functional assay
Remark: another data set of the same source

Q: How did the IC50 turn out when Ac-DDIVPC [Compound 101 (Table 1): Ac-Asp-Asp-Ile-Val-Pro-Cys] was run?
A: Its IC50 is 46 µM.

Q: Ac-DD[Tle]VPC [Compound 111 (Table 1): Ac-Asp-Asp-Tbg-Val-Pro-Cys] was tested. Which IC50 did it give?
A: Its IC50 is 79 µM.

Q: Which IC50 does the source give for Ac-DDIVIC [Compound 119 (Table 1): Ac-Asp-Asp-Ile-Val-Ile-Cys] here?
A: Its IC50 is 90 µM.

Q: With Ac-EDIVPC [Compound 102 (Table 1): Ac-Glu-Asp-Ile-Val-Pro-Cys] as the binder, how does the IC50 read?
A: The IC50 was 59 µM.

Q: How did the IC50 turn out when Ac-DDIV[Hyp(4-Bn)]C [Compound 121 (Table 1): Ac-Asp-Asp-Ile-Val-Hyp(4-Bn)-Cys] was run?
A: The IC50 was 1.7 µM.

Q: With Ac-DDIVP[Abu] [Compound 122 (Table 1): Ac-Asp-Asp-Ile-Val-Pro-Abu] as the binder, how does the IC50 read?
A: Its IC50 is 315 µM.

Q: With Ac-DDIVP[AllylGly] [Compound 124 (Table 1): Ac-Asp-Asp-Ile-Val-Pro-AlGly] as the binder, how does the IC50 read?
A: Its IC50 is 210 µM.

Q: For Ac-DDIVP[Ac5c] [Compound 125 (Table 1): Ac-Asp-Asp-Ile-Val-Pro-Acpe], which IC50 is on record?
A: Its IC50 is 210 µM.

Q: For Ac-DDIVP[Ac3c] [Compound 126 (Table 1): Ac-Asp-Asp-Ile-Val-Pro-Acca], which IC50 is on record?
A: The IC50 was 45 µM.

Q: How did the IC50 turn out when Suc-DIVPC [Compound 103 (Table 1): DAD-Asp-Ile-Val-Pro-Cys] was run?
A: The IC50 was 26 µM.

Q: How did the IC50 turn out when Suc-DIVP[Nva] [Compound 130 (Table 1): DAD-Asp-Ile-Val-Pro-Nva] was run?
A: Its IC50 is 123 µM.

Q: For Ac-DE[Chg]EEC [Compound 131 (Table 1): Ac-Asp-Glu-Chg-Glu-Glu-Cys], which IC50 is on record?
A: The IC50 was 24 µM.

Q: For Ac-DE[Chg]V[Glu(OBn)][Acca] (reading uncertain; also: printed as Ac-Asp-Glu-Chg-Val-Glu(OBn)-Acca) [Compound 133 (Table 1): Ac-Asp-Glu-Chg-Val-Glu(OBn)-Acca], which IC50 is on record?
A: The IC50 was 39 µM.

Q: How did the IC50 turn out when Ac-D[dD]IVPC [Compound 104 (Table 1): Ac-Asp-D-Asp-Ile-Val-Pro-Cys] was run?
A: Its IC50 is 8.5 µM.

Q: Which IC50 does the source give for Ac-D[dE]IVPC [Compound 105 (Table 1): Ac-Asp-D-Glu-Ile-Val-Pro-Cys] here?
A: Its IC50 is 1.5 µM.

Q: With Ac-D[Tle]IVPC [Compound 108 (Table 1): Ac-Asp-Tbg-Ile-Val-Pro-Cys] as the binder, how does the IC50 read?
A: Its IC50 is 31 µM.

Target: T1, recombinant NS3 protease with the NS4A …
Test: cell-based or functional assay
Remark: another data set of the same source

Q: {HOOC‑CH2CH2‑N(Me)C(O)‑CH2‑CH(cyclohexyl)‑C(O)}-Val-[Pro(4-(1-NpCH2O))]-[Ac3c] [Compound 405 (Table 4): B HOOC-CH2CH2-N(Me)C(O)-; R4 cyclohexyl; P3 Val; R13 1-NpCH2O; P1 Acca] was tested. Which IC50 did it give?
A: Its IC50 is 1.6 µM.

Q: For {MeOOC‑CH2‑CH2‑N(Me)c(O)‑CH2‑CH(cyclohexyl)‑C(O)}-Val-[Pro(4-(1-NpCH2O))]-[Ac3c] [Compound 406 (Table 4): B MeOOC-CH2-CH2-N(Me)c(O)-; R4 cyclohexyl; P3 Val; R13 1-NpCH2O; P1 Acca], which IC50 is on record?
A: The IC50 was 25 µM.

Q: For {HOOC‑CH2CH2‑N(Me)2‑C(O)‑CH2‑CH(cyclohexyl)‑C(O)}-Val-[Pro(4-(1-NpCH2O))]-[Ac3c] [Compound 407 (Table 4): B HOOC-CH2CH2-N(Me)2-C(O)-; R4 cyclohexyl; P3 Val; R13 1-NpCH2O; P1 Acca], which IC50 is on record?
A: The IC50 was 1.5 µM.

Q: {MeOOC‑(CH2)2‑N(Me)2‑C(O)‑CH2‑CH(cyclohexyl)‑C(O)}-Val-[Pro(4-(1-NpCH2O))]-[Ac3c] [Compound 408 (Table 4): B MeOOC-(CH2)2-N(Me)2-C(O)-; R4 cyclohexyl; P3 Val; R13 1-NpCH2O; P1 Acca] was tested. Which IC50 did it give?
A: The IC50 was 11 µM.

Q: {HOOC‑CH2‑N(Me)‑C(O)‑CH2‑CH(cyclohexyl)‑C(O)}-Val-[Pro(4-(1-NpCH2O))]-[Ac3c] [Compound 409 (Table 4): B HOOC-CH2-N(Me)-C(O)-; R4 cyclohexyl; P3 Val; R13 1-NpCH2O; P1 Acca] was tested. Which IC50 did it give?
A: Its IC50 is 24 µM.

Q: {EtOOC‑CH‑N(Me)2‑C(O)‑CH2‑CH(cyclohexyl)‑C(O)}-Val-[Pro(4-(1-NpCH2O))]-[Ac3c] [Compound 410 (Table 4): B EtOOC-CH-N(Me)2-C(O)-; R4 cyclohexyl; P3 Val; R13 1-NpCH2O; P1 Acca] was tested. Which IC50 did it give?
A: The IC50 was 32 µM.

Q: How did the IC50 turn out when {(HOOC-(CH2)2)2‑NH‑CH2‑CH2‑CH(cyclohexyl)‑C(O)}-Val-[Pro(4-(1-NpCH2O))]-[Ac3c] [Compound 411 (Table 4): B [HOOC-(CH2)2]2-NH-CH2-; R4 cyclohexyl; P3 Val; R13 1-NpCH2O; P1 Acca] was run?
A: The IC50 was 0.36 µM.

Q: For {(HOOC-CH2)2‑NC(O)‑CH2‑CH(cyclohexyl)‑C(O)}-Val-[Pro(4-(1-NpCH2O))]-[Ac3c] [Compound 412 (Table 4): B [HOOC-CH2]2-NC(O)-; R4 cyclohexyl; P3 Val; R13 1-NpCH2O; P1 Acca], which IC50 is on record?
A: Its IC50 is 0.8 µM.

Q: {(HOOC-(CH2)2)2‑NC(O)‑CH2‑CH(cyclohexyl)‑C(O)}-Val-[Pro(4-(1-NpCH2O))]-[Ac3c] [Compound 413 (Table 4): B [HOOC-(CH2)2]2-NC(O)-; R4 cyclohexyl; P3 Val; R13 1-NpCH2O; P1 Acca] was tested. Which IC50 did it give?
A: The IC50 was 0.12 µM.

Target: T1, recombinant NS3 protease with the NS4A …
Test: cell-based or functional assay
Remark: another data set of the same source

Q: How did the IC50 turn out when Ac-D[dE]IV[Pro(4-OBn)]C [Compound 260 (Table 2): Ac-Asp-D-Glu-Ile-Val-Pro(O-Bn)-Cys] was run?
A: The IC50 was 0.18 µM.

Q: For Ac-[Chg]VPC (not fully specified (residue 3); printed as Ac-Chg-Val-Pro(O-Bn)-Cys) [Compound 261 (Table 2): Ac-Chg-Val-Pro(O-Bn)-Cys], which IC50 is on record?
A: The IC50 was 28 µM.

Q: Ac-IVP[Ac3c] (not fully specified (residue 3); printed as Ac-Ile-Val-Pro(1-NpCH2O)-Acca) [Compound 262 (Table 2): Ac-Ile-Val-Pro(1-NpCH2O)-Acca] was tested. Which IC50 did it give?
A: The IC50 was 40 µM.

Q: Ac-DDIVP[Nva] [Compound 273 (Table 2): Ac-Asp-Asp-Ile-Val-Pro(R13 = H)-Nva] was tested. Which IC50 did it give?
A: Its IC50 is 17.5 µM.

Q: For Ac-D[dV]IVPC [Compound 274 (Table 2): Ac-Asp-D-Val-Ile-Val-Pro(R13 = H)-Cys], which IC50 is on record?
A: Its IC50 is 7.6 µM.

Q: How did the IC50 turn out when Ac-DDIV[Pro(O-Bn)][Nva] [Compound 201 (Table 2): Ac-Asp-Asp-Ile-Val-Pro(O-Bn)-Nva] was run?
A: Its IC50 is 7.2 µM.

Q: With Ac-DDIV[Pro(1-NpCH2O)″][Nva] [Compound 207 (Table 2): Ac-Asp-Asp-Ile-Val-Pro(1-NpCH2O)-Nva] as the binder, how does the IC50 read?
A: Its IC50 is 0.39 µM.

Q: Ac-DDIV[Pro(2-NpCH2O)″][Nva] [Compound 208 (Table 2): Ac-Asp-Asp-Ile-Val-Pro(2-NpCH2O)-Nva] was tested. Which IC50 did it give?
A: Its IC50 is 0.71 µM.

Q: With Ac-DDIV[Pro((4-tert-butyl-phenyl)-methoxy)][Nva] [Compound 209 (Table 2): Ac-Asp-Asp-Ile-Val-Pro((4-tert-butyl-phenyl)-methoxy)-Nva] as the binder, how does the IC50 read?
A: The IC50 was 2.6 µM.

Q: Which IC50 does the source give for Ac-DDIV[Pro(Bn)][Nva] [Compound 216 (Table 2): Ac-Asp-Asp-Ile-Val-Pro(Bn)-Nva] here?
A: Its IC50 is 60 µM.

Q: Which IC50 does the source give for Ac-DDIV[Pro(4-(Ph(CH2)3))][Nva] [Compound 217 (Table 2): Ac-Asp-Asp-Ile-Val-Pro(Ph(CH2)3)-Nva] here?
A: The IC50 was 3 µM.

Q: For Ac-DIV[Pro(4-(1-NpCH2O))][Nva] [Compound 219 (Table 2): Ac-Asp-Ile-Val-Pro(1-NpCH2O)-Nva], which IC50 is on record?
A: The IC50 was 2.3 µM.

Q: For Suc-[NMeI]V[Pro(4-(1-NpCH2O))][Nva] [Compound 220 (Table 2): DAD-N(Me)Ile-Val-Pro(1-NpCH2O)-Nva], which IC50 is on record?
A: The IC50 was 31 µM.

Q: How did the IC50 turn out when Suc-IV[Pro(4-(1-NpCH2O))][Nva] [Compound 221 (Table 2): DAD-Ile-Val-Pro(1-NpCH2O)-Nva] was run?
A: Its IC50 is 22 µM.

Q: How did the IC50 turn out when Glutaryl-IV[Pro(4-(1-NpCH2O))][Nva] [Compound 222 (Table 2): DAE-Ile-Val-Pro(1-NpCH2O)-Nva] was run?
A: The IC50 was 20 µM.

Q: B2 was tested. Which IC50 did it give?
A: Its IC50 is 51 µM.

Q: B3 was tested. Which IC50 did it give?
A: Its IC50 is 56 µM.

Q: Which IC50 does the source give for Ac-IVP[Nva] (not fully specified (residue 3); printed as Ac-Ile-Val-Pro(1-NpCH2O)-Nva) [Compound 225 (Table 2): Ac-Ile-Val-Pro(1-NpCH2O)-Nva] here?
A: The IC50 was 45 µM.

Q: With Ac-DDIV[Pro(4-(Ph(CH2)3))][Nva] [Compound 230 (Table 2): Ac-Asp-Asp-Ile-Val-Pro(Ph(CH2)3)-Nva] as the binder, how does the IC50 read?
A: Its IC50 is 3.3 µM.

Q: Glutaryl-IVP[Ac3c] (not fully specified (residue 3); printed as DAE-Ile-Val-Pro(1-NpCH2O)-Acca) [Compound 237 (Table 2): DAE-Ile-Val-Pro(1-NpCH2O)-Acca] was tested. Which IC50 did it give?
A: Its IC50 is 5.5 µM.
